One substance from patent US20220389119A1 can be followed below.

The target in the experiment is WT Fc chain lacking a warhead. The experiment can be described thus: co-expression in HEK 293 EBNA1, protein A purification, non-reduced micro-capillary gel electrophoresis; 50 kDa = Fc homodimer lacking warheads.

For the substance WT Fc chain lacking a warhead, the NR-mCE 50 kDa (%) is 21.4%.
